Source: publication PMC5651854, “Reconstitution of human shelterin complexes reveals unexpected stoichiometry and dual pathways to enhance telomerase processivity” (Nature Communications, 2017)

Tests used:
[1] = biological target: Human TIN2 (human) (UniProt Q9BSI4); assay: SEC-MALS; purified proteins or co-expressed, purified complexes at 1 mg ml^−1, 100 µl on Superose 6 Increase 10/300 GL, 0.5 ml min^−1, 25 °C, 50 mM HEPES pH 7.5, 300 mM NaCl, 1 mM TCEP
[2] = biological target: mCherry-TIN2S, Q9BSI4-2; assay: LacI-LacO array fluorescence colocalization in cells; conditions: U2OS 2-6-3 cell line; n > 50 nuclei per construct from 3 biological replicates; parent: est. 0.90; read off a plot
[3] = biological target: T1, Human TRF2 (human), Q15554; assay: SEC-MALS; purified proteins or co-expressed, purified complexes at 1 mg ml^−1, 100 µl on Superose 6 Increase 10/300 GL, 0.5 ml min^−1, 25 °C, 50 mM HEPES pH 7.5, 300 mM NaCl, 1 mM TCEP; conditions: remark: other sources report otherwise
T1 chain: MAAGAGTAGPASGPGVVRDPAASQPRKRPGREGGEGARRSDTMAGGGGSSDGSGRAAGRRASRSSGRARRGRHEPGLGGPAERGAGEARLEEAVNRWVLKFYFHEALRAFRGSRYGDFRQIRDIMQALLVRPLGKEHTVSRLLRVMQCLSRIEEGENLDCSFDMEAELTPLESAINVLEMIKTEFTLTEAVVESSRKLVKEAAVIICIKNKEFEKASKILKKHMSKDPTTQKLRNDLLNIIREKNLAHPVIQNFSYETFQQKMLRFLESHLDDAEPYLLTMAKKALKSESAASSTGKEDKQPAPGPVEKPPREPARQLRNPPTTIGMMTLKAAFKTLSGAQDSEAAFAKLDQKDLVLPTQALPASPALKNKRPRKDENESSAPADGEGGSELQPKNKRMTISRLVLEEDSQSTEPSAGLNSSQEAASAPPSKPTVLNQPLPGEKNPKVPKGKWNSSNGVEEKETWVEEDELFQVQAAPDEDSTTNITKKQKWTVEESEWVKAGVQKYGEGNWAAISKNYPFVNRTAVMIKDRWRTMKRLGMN

[4] = biological target: T2, ybbR-tagged human TIN2 (human, UniProt Q9BSI4-2 1-354, Cy3 (from CoA-Cy3, by Sfp phosphopantetheinyl transferase) on the ybbR tag); assay: fluorescence intensity of Cy3-labelled ybbR-tagged subunits on SDS-PAGE; purified complexes (5 µM) with one ybbR tag on each subunit labelled with CoA-Cy3 (10 µM) by Sfp (1 µM), 50 mM HEPES pH 7.5, 300 mM KCl, 10 mM MgCl2, 1 mM TCEP, overnight at 4 °C; band intensities normalised to TPP1; conditions: both partners purified
T2 construct: The methods put the ybbR tag at the C-terminus of TIN2; the results speak of an N-terminal tag on each protein; also called TIN2 (ybbR tag); source: Tni insect cells (baculovirus), co-expressed, purified as complex, labelled with CoA-Cy3 by Sfp; not shown: His6, N-terminal, cleaved; MBP, N-terminal, cleaved
T2 sequence (looked up): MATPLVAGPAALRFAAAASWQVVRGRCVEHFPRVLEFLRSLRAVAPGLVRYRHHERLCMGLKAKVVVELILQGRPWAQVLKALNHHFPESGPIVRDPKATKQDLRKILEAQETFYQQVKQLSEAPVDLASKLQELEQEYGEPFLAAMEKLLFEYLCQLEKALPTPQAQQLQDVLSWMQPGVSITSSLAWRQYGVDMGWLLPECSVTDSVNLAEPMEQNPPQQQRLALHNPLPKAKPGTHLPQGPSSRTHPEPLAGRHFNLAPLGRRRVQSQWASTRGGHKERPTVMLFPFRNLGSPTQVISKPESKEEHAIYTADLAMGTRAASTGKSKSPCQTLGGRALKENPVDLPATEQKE

[5] = biological target: T3, Human TIN2 (human, UniProt Q9BSI4-2 1-354); assay: SEC-MALS; purified proteins or co-expressed, purified complexes at 1 mg ml^−1, 100 µl on Superose 6 Increase 10/300 GL, 0.5 ml min^−1, 25 °C, 50 mM HEPES pH 7.5, 300 mM NaCl, 1 mM TCEP; conditions: both partners purified
T3 construct: cDNA cloned into pFastBac1; called full-length in the discussion; not shown: His6, N-terminal, cleaved; MBP, N-terminal, cleaved
T3 sequence (looked up): T2 sequence (looked up)

[6] = biological target: eGFP–TPP1_(480–544)–LacI (human); assay: LacI–LacO array recruitment (fluorescence colocalisation); eGFP–TPP1–LacI constructs tethered to a LacO array in U2-OS 2-6-3 cells, co-transfected with mCherry-TIN2S; fixed 24 h after transfection; fraction of nuclei with mCherry at the single GFP focus
[7] = biological target: eGFP–TPP1–LacI (human) (UniProt Q96AP0); assay: as above
[8] = biological target: T4, Human TRF1 (human), P54274; assay: SEC-MALS; purified proteins or co-expressed, purified complexes at 1 mg ml^−1, 100 µl on Superose 6 Increase 10/300 GL, 0.5 ml min^−1, 25 °C, 50 mM HEPES pH 7.5, 300 mM NaCl, 1 mM TCEP; conditions: remark: other sources report otherwise
T4 chain: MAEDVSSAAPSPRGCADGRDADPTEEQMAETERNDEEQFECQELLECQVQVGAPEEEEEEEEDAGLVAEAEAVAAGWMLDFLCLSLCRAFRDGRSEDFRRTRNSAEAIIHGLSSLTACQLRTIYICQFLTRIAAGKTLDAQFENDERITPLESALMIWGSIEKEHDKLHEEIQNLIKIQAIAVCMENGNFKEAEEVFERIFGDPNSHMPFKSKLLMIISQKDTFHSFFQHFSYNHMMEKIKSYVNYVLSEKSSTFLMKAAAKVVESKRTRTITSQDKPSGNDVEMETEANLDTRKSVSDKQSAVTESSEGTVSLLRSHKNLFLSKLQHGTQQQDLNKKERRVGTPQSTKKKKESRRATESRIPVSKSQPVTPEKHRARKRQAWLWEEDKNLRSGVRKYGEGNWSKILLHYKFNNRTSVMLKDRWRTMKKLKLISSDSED

[9] = biological target: TRF2 (Homo sapiens, UniProt A0ACI8RU48 1-541); assay: EMSA (agarose); 500 nM protein; some smearing; Agarose EMSA: 50 mM Tris-HCl pH 8.0, 150 mM KCl, 2 mM MgCl2, 1 mM DTT, 10% glycerol, 0.5 mg/ml BSA, 0.02 mg/ml carrier dsDNA, 30 min 23 C (gel at 4 C); FP: same buffer without carrier DNA, 23 C; conditions: protein: recombinant; tags: 6xHis N-term; chain copies: 2; label: 5'-32P on long strand (EMSA); 3' overhang 13 nt

eGFP–TPP1_(480–544)–LacI (human), sequence (Q96AP0 whole entry): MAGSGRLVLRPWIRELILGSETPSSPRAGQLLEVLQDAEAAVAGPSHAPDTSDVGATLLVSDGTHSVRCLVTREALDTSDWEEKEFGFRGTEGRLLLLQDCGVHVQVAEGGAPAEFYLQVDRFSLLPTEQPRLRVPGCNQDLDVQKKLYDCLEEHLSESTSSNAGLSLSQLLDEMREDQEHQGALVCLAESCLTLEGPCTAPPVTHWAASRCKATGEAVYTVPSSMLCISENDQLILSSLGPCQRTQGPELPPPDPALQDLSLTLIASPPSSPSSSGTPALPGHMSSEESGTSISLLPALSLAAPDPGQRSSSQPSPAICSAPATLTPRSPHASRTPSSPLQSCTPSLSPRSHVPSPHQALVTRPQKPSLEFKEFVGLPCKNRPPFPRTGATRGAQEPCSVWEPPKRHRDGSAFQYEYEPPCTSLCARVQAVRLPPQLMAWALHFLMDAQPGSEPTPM
eGFP–TPP1–LacI (human), sequence (Q96AP0 whole entry): as above

Molecule: Human TPP1 (from UniProt Q96AP0 1-458) (natural protein)
- stoichiometry N (TPP1 per TIN2) [1]: 1

Molecule: eGFP–TPP1–LacI (from UniProt Q96AP0) NAAIRS 480 (six residues starting at 480 replaced by NAAIRS)
- other: fraction of colocalization [2]: 0.92

Molecule: eGFP–TPP1–LacI (from UniProt Q96AP0) NAAIRS 486 (six residues starting at 486 replaced by NAAIRS)
- other: fraction of colocalization [2]: 0.94

Molecule: eGFP–TPP1–LacI (from UniProt Q96AP0) NAAIRS 492 (six residues starting at 492 replaced by NAAIRS)
- other: fraction of colocalization [2]: 0.93

Molecule: eGFP–TPP1–LacI (from UniProt Q96AP0) NAAIRS 498 (six residues starting at 498 replaced by NAAIRS)
- other: fraction of colocalization [2]: 0.88

Molecule: eGFP–TPP1–LacI (from UniProt Q96AP0) NAAIRS 504 (six residues starting at 504 replaced by NAAIRS)
- other: fraction of colocalization [2]: 0.92

Molecule: eGFP–TPP1–LacI (from UniProt Q96AP0) NAAIRS 510 (six residues starting at 510 replaced by NAAIRS)
- other: fraction of colocalization [2]: 0.88

Molecule: eGFP–TPP1–LacI (from UniProt Q96AP0) NAAIRS 516 (six residues starting at 516 replaced by NAAIRS)
- other: fraction of colocalization [2]: 0.93

Molecule: eGFP–TPP1–LacI (from UniProt Q96AP0) NAAIRS 522 (six residues starting at 522 replaced by NAAIRS)
- other: fraction of colocalization [2]: 0.87

Molecule: eGFP–TPP1–LacI (from UniProt Q96AP0) NAAIRS 534 (six residues starting at 534 replaced by NAAIRS)
- other: fraction of colocalization [2]: 0.93

Molecule: eGFP–TPP1–LacI (from UniProt Q96AP0) NAAIRS 539 (six residues starting at 539 replaced by NAAIRS)
- other: fraction of colocalization [2]: 0.96

B1: Human TRF2, Q15554 1-542 (natural protein)
chain: T1 chain
- stoichiometry N (subunits in the oligomer) [3]: 2

B2: ybbR-tagged human TRF2 (natural protein, UniProt Q15554 1-542, looked up)
chain: T1 chain
modifications: Cy3 (from CoA-Cy3, by Sfp phosphopantetheinyl transferase) on the ybbR tag
notes: also called TRF2 (ybbR tag); source: Tni insect cells (baculovirus), co-expressed, purified as complex, labelled with CoA-Cy3 by Sfp
- stoichiometry N [4]: 2 TRF2 per TIN2

B3: Human TRF2 (natural protein, UniProt Q15554 1-542, looked up)
chain: T1 chain
notes: called full-length in the discussion; predicted dimer mass printed as 119 kDa; source: Tni insect cells (baculovirus), alone or co-expressed with other shelterin proteins, purified (final SEC)
- stoichiometry N [5]: 2 TRF2 per TIN2

B4: mCherry-TIN2S (natural protein)
chain: T2 sequence (looked up)
- fraction of LacO sites with colocalisation [6]: 90%
- fraction of LacO sites with colocalisation [7]: 90%

B5: Human TRF1, P54274-1 1-439 (natural protein)
chain: T4 chain
- stoichiometry N (subunits in the oligomer) [8]: 2

B6: C8 (mixed)
DNA 1: GACCATGCTTAGGGTTAGGGTTATCATACAAGTTAGGGTTAGGG
DNA 2: TTGTATGATAACCCTAACCCTAAGCATGGTC
- binding result [9]: binds
